The target in this assay is glutathione S-transferase (GST). Description: cross-linking; GST crosslinked in a crosslinker titration with UCCL or DSSO, two molar ratios of each reagent; crosslinked dimer seen (Figure 2c).

As usually defined, the stoichiometry N is the number of molecules, sites or subunits per partner or assembly.

As for “glutathione S-transferase (GST) (enzyme)”, the stoichiometry N was determined as 2.

The record behind these values is article PMC10466327.
